Experimental findings from PMC3042717 are described below.

In the assay the target is GST-VP16 (aa 452-490) (herpes simplex virus) (UniProt P06492). The experiment in a line: pull-down.
Sequence of UniProt P06492 (P06492 452-490): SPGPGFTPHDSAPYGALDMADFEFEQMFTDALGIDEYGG

The substance “wild-type p300 over-expressed in A293 cells, Q09472 1-2414” registered a fold more efficient pull-down than of p300ΔC of 5 fold.
